In US20160244497A1 (Amgen, published 2016):
Where “and” joins values, the source holds several entries; their conditions need not be identical. Equal values may be shown once. Read-outs that look alike come from different tables or passages of the source.

Tests used:
Assay in all cases: cell-based or functional assay
beta-klotho [1] = molecular target: beta-klotho
beta-klotho [2] = molecular target: beta-klotho; remark: listed apart in the source
beta-klotho [3] = molecular target: beta-klotho; remark: listed apart in the source
beta-klotho [4] = molecular target: beta-klotho; remark: listed apart in the source

B1: N-terminally PEGylated wild-type FGF21 (20 kDa PEG) (ligand)
chain: MHPIPDSSPLLQFGGQVRQRYLYTDDAQQTEAHLEIREDGTVGGAADQSPESLLQLKALKPGVIQILGVKTSRFLCQRPDGALYGSLHFDPEACSFRELLLEDGYNVYQSEAHGLPLHLPGNKSPHRDPAPRGPARFLPLPGLPPAPPEPPGILAPQPPDVGSSDPLSMVGPSQGRSPSYAS
modifications: one 20 kDa PEG on the N-terminus (alpha-amino group)
EC50, ELK-luciferase assay (beta-klotho [1]): 36.7 nM and 43.3 nM and 21.5 nM and 40 nM | In Vitro Activity EC50, ELK-luciferase assay (beta-klotho [2]): 43.3 nM | EC50, ELK-luciferase assay (beta-klotho [3]): 37 nM

B2: dually PEGylated FGF21 mutant E37C, R77C, P171G (ligand)
chain: MHPIPDSSPLLQFGGQVRQRYLYTDDAQQTEAHLEIRCDGTVGGAADQSPESLLQLKALKPGVIQILGVKTSRFLCQCPDGALYGSLHFDPEACSFRELLLEDGYNVYQSEAHGLPLHLPGNKSPHRDPAPRGPARFLPLPGLPPAPPEPPGILAPQPPDVGSSDPLSMVGGSQGRSPSYAS
modifications: 20 kDa methoxy-PEG-maleimide on Cys 37 and on Cys 77
EC50, ELK-luciferase assay (beta-klotho [4]): 27 nM

B3: Native FGF21 (random), 2 x 20k PEG (ligand)
chain: MHPIPDSSPLLQFGGQVRQRYLYTDDAQQTEAHLEIREDGTVGGAADQSPESLLQLKALKPGVIQILGVKTSRFLCQRPDGALYGSLHFDPEACSFRELLLEDGYNVYQSEAHGLPLHLPGNKSPHRDPAPRGPARFLPLPGLPPAPPEPPGILAPQPPDVGSSDPLSMVGPSQGRSPSYAS
modifications: two 20k PEG at random sites (sites not given)
In Vitro Activity EC50, ELK-luciferase assay (beta-klotho [2]): 200 nM

B4: dually PEGylated FGF21 mutant E37C, R175C, P171G (ligand)
chain: MHPIPDSSPLLQFGGQVRQRYLYTDDAQQTEAHLEIRCDGTVGGAADQSPESLLQLKALKPGVIQILGVKTSRFLCQRPDGALYGSLHFDPEACSFRELLLEDGYNVYQSEAHGLPLHLPGNKSPHRDPAPRGPARFLPLPGLPPAPPEPPGILAPQPPDVGSSDPLSMVGGSQGCSPSYAS
modifications: 20 kDa methoxy-PEG-maleimide on Cys 37 and on Cys 175
EC50, ELK-luciferase assay (beta-klotho [4]): 162 nM

B5: FGF21(all K to all R, R77K), 2 x 20k PEG (ligand)
chain: MHPIPDSSPLLQFGGQVRQRYLYTDDAQQTEAHLEIREDGTVGGAADQSPESLLQLRALRPGVIQILGVRTSRFLCQKPDGALYGSLHFDPEACSFRELLLEDGYNVYQSEAHGLPLHLPGNRSPHRDPAPRGPARFLPLPGLPPAPPEPPGILAPQPPDVGSSDPLSMVGPSQGRSPSYAS
modifications: two 20k PEG (amine-specific): N-terminus and Lys 77
In Vitro Activity EC50, ELK-luciferase assay (beta-klotho [2]): 175 nM

B6: dually PEGylated FGF21 mutant E91C, R175C, P171G (ligand)
chain: MHPIPDSSPLLQFGGQVRQRYLYTDDAQQTEAHLEIREDGTVGGAADQSPESLLQLKALKPGVIQILGVKTSRFLCQRPDGALYGSLHFDPCACSFRELLLEDGYNVYQSEAHGLPLHLPGNKSPHRDPAPRGPARFLPLPGLPPAPPEPPGILAPQPPDVGSSDPLSMVGGSQGCSPSYAS
modifications: 20 kDa methoxy-PEG-maleimide on Cys 91 and on Cys 175
EC50, ELK-luciferase assay (beta-klotho [4]): 155 nM

B7: dually PEGylated FGF21 mutant E91C, H125C, P171G (ligand)
chain: MHPIPDSSPLLQFGGQVRQRYLYTDDAQQTEAHLEIREDGTVGGAADQSPESLLQLKALKPGVIQILGVKTSRFLCQRPDGALYGSLHFDPCACSFRELLLEDGYNVYQSEAHGLPLHLPGNKSPCRDPAPRGPARFLPLPGLPPAPPEPPGILAPQPPDVGSSDPLSMVGGSQGRSPSYAS
modifications: 20 kDa methoxy-PEG-maleimide on Cys 91 and on Cys 125
EC50, ELK-luciferase assay (beta-klotho [4]): 37 nM

B8: dually PEGylated FGF21 mutant R77C, G120C, P171G (ligand)
chain: MHPIPDSSPLLQFGGQVRQRYLYTDDAQQTEAHLEIREDGTVGGAADQSPESLLQLKALKPGVIQILGVKTSRFLCQCPDGALYGSLHFDPEACSFRELLLEDGYNVYQSEAHGLPLHLPCNKSPHRDPAPRGPARFLPLPGLPPAPPEPPGILAPQPPDVGSSDPLSMVGGSQGRSPSYAS
modifications: 20 kDa methoxy-PEG-maleimide on Cys 77 and on Cys 120
EC50, ELK-luciferase assay (beta-klotho [4]): 35 nM

B9: dually PEGylated FGF21 mutant E37C, E91C, P171G (ligand)
chain: MHPIPDSSPLLQFGGQVRQRYLYTDDAQQTEAHLEIRCDGTVGGAADQSPESLLQLKALKPGVIQILGVKTSRFLCQRPDGALYGSLHFDPCACSFRELLLEDGYNVYQSEAHGLPLHLPGNKSPHRDPAPRGPARFLPLPGLPPAPPEPPGILAPQPPDVGSSDPLSMVGGSQGRSPSYAS
modifications: 20 kDa methoxy-PEG-maleimide on Cys 37 and on Cys 91
EC50, ELK-luciferase assay (beta-klotho [4]): 30 nM

B10: FGF21(K56R/K69R/K122R), 2 x 20k PEG (ligand)
chain: MHPIPDSSPLLQFGGQVRQRYLYTDDAQQTEAHLEIREDGTVGGAADQSPESLLQLRALKPGVIQILGVRTSRFLCQRPDGALYGSLHFDPEACSFRELLLEDGYNVYQSEAHGLPLHLPGNRSPHRDPAPRGPARFLPLPGLPPAPPEPPGILAPQPPDVGSSDPLSMVGPSQGRSPSYAS
modifications: two 20k PEG (amine-specific): N-terminus and the one remaining lysine (Lys 59)
In Vitro Activity EC50, ELK-luciferase assay (beta-klotho [2]): 215 nM

B11: FGF21(all K to all R, R36K), 2 x 20k PEG (ligand)
chain: MHPIPDSSPLLQFGGQVRQRYLYTDDAQQTEAHLEIKEDGTVGGAADQSPESLLQLRALRPGVIQILGVRTSRFLCQRPDGALYGSLHFDPEACSFRELLLEDGYNVYQSEAHGLPLHLPGNRSPHRDPAPRGPARFLPLPGLPPAPPEPPGILAPQPPDVGSSDPLSMVGPSQGRSPSYAS
modifications: two 20k PEG (amine-specific): N-terminus and Lys 36
In Vitro Activity EC50, ELK-luciferase assay (beta-klotho [2]): 73 nM

B12: FGF21(K56/59/69R), 2 x 20k PEG (ligand)
chain: MHPIPDSSPLLQFGGQVRQRYLYTDDAQQTEAHLEIREDGTVGGAADQSPESLLQLRALRPGVIQILGVRTSRFLCQRPDGALYGSLHFDPEACSFRELLLEDGYNVYQSEAHGLPLHLPGNKSPHRDPAPRGPARFLPLPGLPPAPPEPPGILAPQPPDVGSSDPLSMVGPSQGRSPSYAS
modifications: two 20k PEG (amine-specific): N-terminus and the one remaining lysine (Lys 122)
In Vitro Activity EC50, ELK-luciferase assay (beta-klotho [2]): 500 nM

B13: FGF21(K all R, R126K), 2 x 20k PEG (ligand)
chain: MHPIPDSSPLLQFGGQVRQRYLYTDDAQQTEAHLEIREDGTVGGAADQSPESLLQLRALRPGVIQILGVRTSRFLCQRPDGALYGSLHFDPEACSFRELLLEDGYNVYQSEAHGLPLHLPGNRSPHKDPAPRGPARFLPLPGLPPAPPEPPGILAPQPPDVGSSDPLSMVGPSQGRSPSYAS
modifications: two 20k PEG (amine-specific): N-terminus and Lys 126
In Vitro Activity EC50, ELK-luciferase assay (beta-klotho [2]): 38 nM

B14: FGF21(all K to all R, R175K), 2 x 20k PEG (ligand)
chain: MHPIPDSSPLLQFGGQVRQRYLYTDDAQQTEAHLEIREDGTVGGAADQSPESLLQLRALRPGVIQILGVRTSRFLCQRPDGALYGSLHFDPEACSFRELLLEDGYNVYQSEAHGLPLHLPGNRSPHRDPAPRGPARFLPLPGLPPAPPEPPGILAPQPPDVGSSDPLSMVGPSQGKSPSYAS
modifications: two 20k PEG (amine-specific): N-terminus and Lys 175
In Vitro Activity EC50, ELK-luciferase assay (beta-klotho [2]): > 1000 nM

B15: FGF21(K56R/K59R/K122R), 2 x 20k PEG (ligand)
chain: MHPIPDSSPLLQFGGQVRQRYLYTDDAQQTEAHLEIREDGTVGGAADQSPESLLQLRALRPGVIQILGVKTSRFLCQRPDGALYGSLHFDPEACSFRELLLEDGYNVYQSEAHGLPLHLPGNRSPHRDPAPRGPARFLPLPGLPPAPPEPPGILAPQPPDVGSSDPLSMVGPSQGRSPSYAS
modifications: two 20k PEG (amine-specific): N-terminus and the one remaining lysine (Lys 69)
In Vitro Activity EC50, ELK-luciferase assay (beta-klotho [2]): 531 nM

B16: FGF21(all K to all R, R72K), 2 x 20k PEG (ligand)
chain: MHPIPDSSPLLQFGGQVRQRYLYTDDAQQTEAHLEIREDGTVGGAADQSPESLLQLRALRPGVIQILGVRTSKFLCQRPDGALYGSLHFDPEACSFRELLLEDGYNVYQSEAHGLPLHLPGNRSPHRDPAPRGPARFLPLPGLPPAPPEPPGILAPQPPDVGSSDPLSMVGPSQGRSPSYAS
modifications: two 20k PEG (amine-specific): N-terminus and Lys 72
In Vitro Activity EC50, ELK-luciferase assay (beta-klotho [2]): > 1000 nM

B17: PEGylated FGF21 mutant K69C (ligand)
chain: MHPIPDSSPLLQFGGQVRQRYLYTDDAQQTEAHLEIREDGTVGGAADQSPESLLQLKALKPGVIQILGVCTSRFLCQRPDGALYGSLHFDPEACSFRELLLEDGYNVYQSEAHGLPLHLPGNKSPHRDPAPRGPARFLPLPGLPPAPPEPPGILAPQPPDVGSSDPLSMVGPSQGRSPSYAS
modifications: 20 kDa methoxy-PEG-maleimide on Cys 69
EC50, ELK-luciferase assay (beta-klotho [1]): 5.3 nM

B18: FGF21(K59R/K69R/K122R), 2 x 20k PEG (ligand)
chain: MHPIPDSSPLLQFGGQVRQRYLYTDDAQQTEAHLEIREDGTVGGAADQSPESLLQLKALRPGVIQILGVRTSRFLCQRPDGALYGSLHFDPEACSFRELLLEDGYNVYQSEAHGLPLHLPGNRSPHRDPAPRGPARFLPLPGLPPAPPEPPGILAPQPPDVGSSDPLSMVGPSQGRSPSYAS
modifications: two 20k PEG (amine-specific): N-terminus and the one remaining lysine (Lys 56)
In Vitro Activity EC50, ELK-luciferase assay (beta-klotho [2]): 499 nM
